One test has as its system potato leaf discs. Description: Leaf disc binding assay with VHH-coupled microcapsules, potato. Also noted: species or system potato (variety Desiree). As to the method:
A leaf disc binding assay was used to evaluate the interaction of VHH-coupled microcapsules with potato, grass and azalea leaves. ø 8 mm leaf discs were sampled from the leaves of potato pot plants (variety Desiree), from the leaves of greenhouse-grown Lollium perenne and from the leaves of azalea pot plants. Leaf discs were washed three times with PBS. Microcapsules containing lambda cyhalothrin or Uvitex were diluted to appropriate densities in 1% skimmed milk in PBS with 0.05%-TWEEN®-20. Microcapsules were added to the leaf discs and settling of microcapsules and binding of targeting agents allowed for 1 hour. Unbound microcapsules were removed by washing three to five times with PBS with 0.05%-TWEEN®-20.
For lambda cyhalothrin microcapsules, a residue analysis was performed to measure lambda cyhalothrin amounts on potato leaf discs. Washed leaf discs with bound microcapsules were transferred to glass vials and microcapsules were dissolved in acetone. Samples were diluted by addition of hexane containing 0.05% triphenylphosphate as internal standard. The amount of lambda cyhalothrin was determined by GC/MS-MS analysis in comparison with calibration solutions. Controls for lambda cyhalothrin microcapsules included blank microcapsules to which no VHH were coupled and microcapsules to which unrelated VHH were coupled.
Leaf discs with Uvitex microcapsules were analyzed for bound microcapsules on a macrozoom microscope system (Nikon). Microcapsules were counted using Volocity image analysis software (Perkin Elmer). A DAPI filter was used to visualize Uvitex microcapsules. Controls for Uvitex microcapsules included blank microcapsules to which no VHH were coupled and microcapsules to which unrelated VHH were coupled.

The next test has as its target T1, potato lectin (Solanum tuberosum, UniProt Q9S8M0).
T1 construct: purchased Sigma
T1 sequence (Q9S8M0 whole entry, looked up): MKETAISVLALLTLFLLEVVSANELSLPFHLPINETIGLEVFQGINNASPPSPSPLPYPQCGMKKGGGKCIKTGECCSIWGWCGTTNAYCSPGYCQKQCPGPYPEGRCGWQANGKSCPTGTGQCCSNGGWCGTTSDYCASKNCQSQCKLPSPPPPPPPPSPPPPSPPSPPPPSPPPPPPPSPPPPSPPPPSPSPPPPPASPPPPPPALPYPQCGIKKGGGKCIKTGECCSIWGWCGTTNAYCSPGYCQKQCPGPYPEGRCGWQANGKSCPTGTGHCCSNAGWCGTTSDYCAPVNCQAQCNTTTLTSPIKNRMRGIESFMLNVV
As to the kind of experiment: ELISA-like assay of VHH-coupled microcapsules, potato lectin-coated wells. The format is binding. Also noted: Area of bound microcapsules: unit not given beside the values. The following applies: for Area of bound microcapsules: uvitex OB microcapsules. On the procedure: Polyurea microcapsules were produced by interfacial polymerization. With the objective to generate functionalized polyurea microcapsules, VHH were coupled to microcapsules containing either the insecticide lambda cyhalothrin or the fluorescent tracer molecule Uvitex OB and a shell with incorporated lysine to surface-expose carboxylic acid residues. Lambda cyhalothrin was dissolved in benzyl benzoate in concentrations between 30% and 66% before encapsulation. Alternatively, a core of 1.5% Uvitex in benzyl benzoate was used for easy fluorescent visualization of microcapsules. Toluene diisocyanate (TDI) and polymethylenepolyphenylene isocyanate (PMPPI) were dissolved in the oil phase in different ratios and concentrations in the oil phase to produce desired shell characteristics. Stirring speed for the emulsion was varied to control droplet size and consequently microcapsule diameter. Microcapsules with approximate diameters of 5 μm, 10 μm, or 50 μm were successfully produced. Bifunctional lysine and trifunctional diethylene triamine (DETA) were used in different ratios and/or added sequentially during encapsulation to on the one hand maximize amounts of carboxylic acids on the microcapsules' surface and on the other hand obtain sufficient strength of capsule shells. Microcapsules were washed with water after production and stored as microcapsule suspensions in water. The microcapsules were washed with 100 mM MES, 500 mM NaCl, pH 6.0 immediately before coupling of VHH using a vacuum-tight filter flask and P 1.6 filter funnel (Duran). Alternatively, glass filter holders with 0.45 μm disposable membrane filters (Millipore) or 0.45 μm 96-well deep-well filtration plates (Millipore) were used. Couplings of VHH to microcapsules were performed using carbodiimide-mediated couplings using a one-step procedure, a two-step procedure without N-hydroxysuccinimide (NHS), or a two-step procedure with NHS. The major difference between one-step coupling and two-step coupling procedures is the occurrence of cross-linking of VHH in one-step coupling procedures. The protocols for the three procedures are largely similar and differ as follows. For one-step couplings VHH were added to washed microcapsules and 1-Ethyl-3-[3-dimethylaminopropyl]carbodiimide Hydrochloride (EDC) (Pierce) was added and coupling reaction was allowed for 2 hours at room temperature. For two-step couplings washed microcapsules were first activated with EDC in the presence or absence of NHS. Excess unreacted EDC (and NHS) were removed by quick sequential washes with ice-cold buffers and VHH were added and allowed to react with activated carboxylic acids on microcapsule shells. For ø 10 μm microcapsules 2-20 μg VHH were coupled per mg microcapsules. For microcapsules with other diameters amounts were scaled accordingly. After coupling of VHH the microcapsules were washed with PBS and stored in PBS. Success of coupling of VHH was investigated using a combination of analyzing coupling efficiency by SDS-PAGE and analyzing bound hexahistidine-tagged VHH by microscopy or a SP5 confocal microscope system (Leica) using anti-histidine antibodies directly conjugated with Alexa-488 fluorescent dye. […] VHH-coupled microcapsules were labeled with anti-histidine antibodies for 1 hour at room temperature. Unbound anti-histidine antibodies were removed by washing five times with PBS using 0.45 μm 96-well deep-well filtration plates (Millipore). […]
On the technique in general: In an ELISA, binding on a coated surface is turned into a signal by an enzyme label.

The mark [1] stands for this setting: potato leaf discs, Uvitex microcapsules, FIG. 4.

B1: VHH 3E6: VHH binding gum arabic, potato lectin and leaf surface; SEQ ID NO:7 by order of the list (protein, listed as Lama glama)
VHH: QVQLQESGGGLVQPGGTLSLSCAASGFNVRWYGMGWFRQAPGKEREGVACISALQETTAYADSVKGRFTLSRDNPKNTLSLQMNNLQPEDTGVYYCATTDCDDSSRMTYTSYLGQGTQVTVSS
modifications: 3E6
With B1, in the test with potato leaf discs (VHH coupled to Uvitex microcapsules, leaf disc binding assay), the “binding and retaining microcapsules to leaf surfaces” value was “capable of binding and retaining microcapsules specifically to leaf surfaces”. For the same molecule, the “binding and retaining microcapsules to antigen-coated surface when VHH is coupled to a microcapsule” value with potato lectin (microcapsule binding assays, resists washing shear forces) is given as “capable of binding specifically to antigen-coated surfaces”.

B2: Microcapsules containing uvitex OB VHH 3E6: polyurea microcapsules containing the fluorescent tracer Uvitex OB, coupled with (monovalent) VHH 3E6 (conjugate)
VHH: B1 VHH
modifications: left off: small tags and cut ends
notes: polyurea microcapsules containing the fluorescent tracer Uvitex OB, coupled with (monovalent) VHH 3E6
For B2, the “more microcapsules bound to leaf surfaces compared to blank microcapsules” value with potato leaf discs (setting [1]) is recorded as “nine-fold”. Further, the “more microcapsules bound to leaf surfaces compared to microcapsules coupled with unrelated VHH” value in the test on potato leaf discs (setting [1]) is given as “six-fold”. Moreover, the “Area of bound microcapsules” value in the test with potato lectin (no coating (first series, with potato lectin rows), surface coverage 100%) was 86.574; in the test with potato lectin (potato lectin, surface coverage 4%), 144.955; with potato lectin (potato lectin, surface coverage 20%), 510.242; with potato lectin (potato lectin, surface coverage 100%), 504.839.

(Values after US8598081B2, “Specific delivery of agrochemicals” (priority 2010, dated 2013).)
